The values that follow come from patent publication US20250382355A1 (Merck Sharp & Dohme, published 2025).

The target of test [1] is T1, SARS-CoV-2 prefusion-stabilized spike protein (SARS-CoV-2-PreS) (SARS-CoV-2, UniProt P0DTC2 14-1208). Briefly: ELISA.
For test [2], the target named is SARS-CoV-2 Alpha B.1.1.7 spike on pseudovirus (SARS-CoV-2). The test is described as follows: cell-based or functional assay.
Test [3] deals with SARS-CoV-2 Beta B.1.351 spike on pseudovirus (SARS-CoV-2). The test is described as follows: cell-based or functional assay.
Test [4] has as its target SARS-CoV-2 Gamma P.1 spike on pseudovirus (SARS-CoV-2). The test is described as follows: cell-based or functional assay.
The target of test [5] is T1, SARS-CoV-2 prefusion-stabilized spike …. The test is described as follows: Biacore, apparent affinity. In general terms: Surface plasmon resonance follows binding to a sensor surface in real time, without labels.
Test [6] deals with T2, Biotinylated CoV2 Spike ECD PreS-AVI protein (SARS-CoV-2, UniProt P0DTC2 14-1208). Briefly: Octet binning; competitor 7A9. In general terms: In BLI a coated tip is dipped into the sample, and binding shifts an interference pattern.
In test [7] the target is T2, Biotinylated CoV2 Spike ECD PreS-AVI …. The test is described as follows: Octet binning; competitor 8E9.
Test [8] has the same target. The test is described as follows: Octet binning; competitor 9B2.
Test [9] has the same target. Briefly: Octet binning; competitor 11F8.
Test [10] shares this target. The test is described as follows: Octet binning; competitor 13C8.
The target is the same in test [11]. Briefly: Octet binning; competitor 15H1.
Test [12] has the same target. Briefly: Octet binning; competitor 15H7.
The target is the same in test [13]. Briefly: Octet binning; competitor 1A11.
The target is the same in test [14]. The test is described as follows: Octet binning; competitor Std-A.
Test [15] shares this target. The test is described as follows: Octet binning; competitor Std-B.
The target is the same in test [16]. Briefly: Octet binning; competitor Std-D.
Test [17] deals with SARS-CoV-2 Omicron spike on pseudovirus (SARS-CoV-2). Briefly: cell-based or functional assay.

B1: 1E4 VHH-Fc (Fc fusion)
chain: QVLLVESGGGLVQAGGLLRLACSASGRTFTENVMGWFRQAPGKEREFVAAINWNTGSTYYSDSRKGRFTISKDNAKNTMFLQINNLKPEDTAVYYCGGTSSSYYYIGEFIPDYWGQGTQVTVSS
In the case of B1, the EC50 (usually the concentration that produces a half-maximal response) in test [1] was 0.04 nM. In addition, the “pseudovirus neutralization IC50” value was determined as 2.2 nM in test [2], 0.58 nM in test [3] and 2.6 nM in test [4]. In addition, the Kd in test [5] is below 0.2 nM. The binning response in test [6] was 0.26; in test [7], 0.09; in test [8], 0.11; in [9], 0.11; in test [10], 0.12; in [11], 0.11. In addition, the binning response in [12] came out at 0.11; in test [13] it was 0.09; in [14], 0.28; in [15], 0.24; in test [16] it was 0.08.

B2: 8E9 VHH-Fc (Fc fusion)
chain: QVQLVESGGGLVEAGGSLRLSCVASGSSSSINAMGWYRQAPGKQRELVASISHDGETKYANSVKGRFTISRGNAKNTIYLQMNSLKPEDTAVYYCVGDVAWVVVAGEYDYWGQGTQVTVSS
With B2, the EC50 in [1] is 0.08 nM. In addition, the “pseudovirus neutralization IC50” value in test [17] worked out at 429 nM. The Kd in test [5] is below 0.2 nM. Moreover, the binning response in test [6] turned out to be 0.39; in test [7] it was 0.08; in test [8] it was 0.11; in test [9] it was 0.11; in test [10] it was 0.11; in [11] it was 0.13. The binning response in [12] turned out to be 0.11; in test [13], 0.09; in [14], 0.36; in test [15], 0.34; in test [16], 0.04.

B3: 3D4 VHH-Fc (Fc fusion)
chain: QVQLVESGGGLVQPGGSLRLSCAASGFTLDLNSIGWFRQAPGKEREGVSCISPSGSRMHYADSVKGRFTISRDNAKNTVYLQMNSLKPEDTAVYYCATGSPSYHYCSMYGLEYDSWGQGTQVTVPS
Regarding B3, the EC50 in test [1] was 0.13 nM. Further, the “pseudovirus neutralization IC50” value in [2] is 1.5 nM; in [3], 1.1 nM; in [4], 0.59 nM. Besides, the Kd in [5] is below 0.2 nM. In addition, the binning response in test [6] turned out to be 0.32; in test [7], 0.08; in test [8], 0.09; in test [9], 0.09; in [10], 0.1; in [11], 0.1. In addition, the binning response was 0.09 in test [12]; 0.08 in test [13]; 0.34 in test [14]; 0.31 in test [15]; 0.04 in test [16].

B4: 19C10 VHH-Fc (Fc fusion)
chain: QVQLVESGGGLVQPGGSLRLSCAASGFTLDLNSIGWFRQAPGKEREGVSCISPSASSTHYADSVKGRFTISRDNAKNTVYLQMNSLKPEDTAVYYCATGTPSYHYCSMYGLEYDDWGQGTQVTVSS
Turning to B4, the EC50 in [1] amounted to 0.06 nM. Also, the “pseudovirus neutralization IC50” value in test [2] is 0.85 nM; in test [3], 0.66 nM; in test [4], 0.8 nM. Besides, the Kd in test [5] was below 0.2 nM. In addition, the binning response in [6] amounted to 0.36; in test [7] it was 0.1; in test [8], 0.11; in [9] it was 0.12; in test [10] it was 0.1; in test [11], 0.1. Further, the binning response in test [12] was 0.1; in test [13] it was 0.08; in test [14], 0.35; in [15] it was 0.35; in test [16], 0.04.

B5: 5D7 VHH-Fc (Fc fusion)
chain: QVQLVESGGGLVQAGGSLRLSCAASGRTGSRYIMGWFRQAPGKEREFVAAINWRGDSTYYADSVKGRFTIARDNAKNTAYLQMNSLKPEDTAVYYCVADRGESYYYTRSTEYTYWGQGTQVTVSS
Consider B5, for which, in [1], the EC50 came to 0.11 nM. The “pseudovirus neutralization IC50” value in test [17] came out at 221 nM. Further, the Kd in test [5] was below 0.2 nM. The binning response in test [6] came to 0.31; in test [7], 0.1; in test [8] it was 0.12; in [9] it was 0.12; in test [10] it was 0.15; in [11] it was 0.16. In addition, the binning response worked out at 0.15 in test [12]; 0.12 in test [13]; 0.28 in [14]; 0.25 in [15]; 0.12 in test [16].

B6: 5A6 VHH-Fc (Fc fusion)
chain: QVQLVESGGGLAQAGGSLRLSCATSGLTFSMSAMGWFRQAPGNEREFVGVINWNGGSSRYADSVRGRFTISRDNAKNTVYLQMNSLKPEDTGVYYCAADALNIGTGEVNPRLYDYWGQGTQVMVSS
As to B6, the EC50 in test [1] came out at 0.14 nM. Further, the results for the “pseudovirus neutralization IC50” value in [2], in test [3] and in [4] were 26 nM, 54 nM and 3.1 nM, respectively. Moreover, the Kd in test [5] is below 0.2 nM. Besides, the binning response stood at 0.37 in test [6]; 0.09 in [7]; 0.11 in test [8]; 0.09 in [9]; 0.09 in test [10]; 0.12 in test [11]. Also, the binning response was 0.1 in test [12]; 0.09 in [13]; 0.39 in test [14]; 0.35 in [15]; 0.03 in [16].

B7: 7A9 VHH-Fc (Fc fusion)
chain: QVQLVESGGGLVQAGGSLRLSCSASGGTASRSAMGWFRQAPGKEREFVAGISRRNSGSTYVADSYEDSVKGRFTISRDNAKNTIYLQMNSLKPEDTAVYYCAAEPTLGWYVPRRSVEYEYWGQGTQVTVSS
Turning to B7, the EC50 in test [1] worked out at 0.16 nM. In [17], the “pseudovirus neutralization IC50” value is 44 nM. The Kd in test [5] is below 0.2 nM. Besides, the binning response in test [6] is 0.06; in test [7] it was 0.37; in test [8] it was 0.38; in [9] it was 0.32; in test [10], 0.52; in test [11], 0.37. Further, the binning response in test [12] worked out at 0.34; in test [13] it was 0.32; in [14] it was 0.34; in test [15] it was 0.3; in [16], 0.46.

B8: 15H7 VHH-Fc (Fc fusion)
chain: QVQLVESGGRLVQAGGSLRLSCAAPGRTFRNLTLGWFRQAPGKEREFVASTSWPDDEMTYYTDSVKGRFTISRDNAKNTVYLQMNSLKPEDTAVYYCAAASWSGRSTLSYDYDYWGQGTQVTVST
Molecule B8 had an EC50 in test [1] of 0.05 nM. Moreover, the Kd in [5] was below 0.2 nM. For the same molecule, the binning response in test [6] was determined as 0.37; in test [7], 0.06; in [8], 0.08; in [9], 0.11; in [10], 0.08; in test [11], 0.09. In addition, the binning response stood at 0.1 in test [12]; 0.09 in [13]; 0.36 in test [14]; 0.32 in test [15]; 0.08 in test [16].

B9: 15H1 VHH-Fc (Fc fusion)
chain: QVQLVESGGGLAQAGGSLRLSCASSGLIFSGSAMGWFRQAPGKEREFVGVISWNGRTTYADSVKGRFTISRDDAVNMVWLQMNNLKPEDTAVYYCAADHLNYGSGDVNPRTYDYWGQGTQVTVSS
On to B9, for which, in test [1], the EC50 was 0.14 nM. In addition, the Kd in [5] is below 0.2 nM. Further, the binning response in [6] turned out to be 0.35; in test [7], 0.08; in test [8], 0.08; in [9], 0.09; in test [10] it was 0.1; in test [11] it was 0.11. Moreover, the binning response was 0.11 in test [12]; 0.08 in test [13]; 0.35 in test [14]; 0.3 in test [15]; 0.05 in test [16].
